Data as given in the supplement of paper PMC12783771.
± gives the standard deviation of the averaged measurements.

B1: library; numbered along this chain (parent)
chain: MNIQIGELAKRTACPVVTIRFYEQEGLLPPPGRSRGNFRLYGEEHVERLQFIRHCRSLDMPLSDVRTLLSYRKRPDQDCGEVNMLLDEHIRQVESRIGALLELKHHLVELREACSGARPAQSCGILQGLSDCVCDTRGTTAHPSD

What was measured:
[1] = variants of: B1; assay: sfGFP reporter fluorescence (15 h) (µM FITC); higher = higher leak; details: library round: Round 0; ligand: none
In short: (§1)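 Linear PbrR templates were made by PCR, normalized to 5 nM with an Echo, and expressed in BL21 Star (DE3) PANOx-SP extract with the pPbrR-sfGFP reporter plasmid and 30 μg/mL GamS. Echo-assembled 1 μL reactions held 1 µM lead chloride, 30 µM zinc acetate or no metal and were incubated 15 hr at 30 °C. Endpoint sfGFP fluorescence was read on a Synergy Neo2 and expressed as µM FITC using standard curves. Up to three biological replicates were run.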

[2] = variants of: B1; assay: sfGFP reporter fluorescence (15 h) (µM FITC); higher = stronger transcriptional activation; details: library round: Round 0
In short: as §1

Row | Variant | sfGFP reporter fluorescence [1] | sfGFP reporter fluorescence ([2]; ligand: 1 µM Pb) | sfGFP reporter fluorescence ([2]; ligand: 30 µM Zn)
1 | MNIQIGELAKRTACPVVTIRFYEQEGLLPPPGRSRGNFRLYGEEHVERLQFIRHCRSLDMPLSDVRTLLSARKRPDQDCGEVNMLLDEHIRQVESRIGALLELKHHLVELREACSGARPAQSCGILQGLSDCVCDTRGTTAHPSD [Y71A] | 0.05974 ± 0.00052 | 0.0575 | 0.22 ± 0.0036
2 | MNIQIGELAKRTACPVVTIRFYEQEGLLPPPGRSRGNFRLYGEEHVERLQFIRHCRSLDMPLSDVRTLLSYRKRPDADCGEVNMLLDEHIRQVESRIGALLELKHHLVELREACSGARPAQSCGILQGLSDCVCDTRGTTAHPSD [Q77A] | 0.0698 ± 0.0013 | 0.128 ± 0.045 | 1.48 ± 0.31
3 | MNIQIGELAKRTACPVVTIRFYEQEGLLPPPGRSRGNFRLYGEEHVERLQFIRHCRSLDMPLSDVRTLASYRKRPDQDCGEVNMLLDEHIRQVESRIGALLELKHHLVELREACSGARPAQSCGILQGLSDCVCDTRGTTAHPSD [L69A] | 0.0629 ± 0.0018 | 0.0627 ± 0.0021 | 0.2252 ± 0.0013
4 | MNIQIGELAKRTACPVVTIRFYEQEGLLPPPGRSRGNFRLYGEEHVERLQFIRHCRSLDMPLSDVRTLLSYRKRADQDCGEVNMLLDEHIRQVESRIGALLELKHHLVELREACSGARPAQSCGILQGLSDCVCDTRGTTAHPSD [P75A] | 0.0618 ± 0.0023 | 0.0711 ± 0.01 | 0.519 ± 0.049
5 | MNIQIGELAKRTACPVVTIRFYEQEGLLPPPGRSRGNFRLYGEEHVERLQFIRHCRSLDMPLSDVRTLLSYRARPDQDCGEVNMLLDEHIRQVESRIGALLELKHHLVELREACSGARPAQSCGILQGLSDCVCDTRGTTAHPSD [K73A] | 0.0621 ± 0.0013 | 0.0676 ± 0.007 | 0.42 ± 0.15
6 | MNIQIGELAKRTACPVVTIRFYEQEGLLPPPGRSRGNFRLYGEEHVERLQFIRHCRSLDMPLSDVRTLLSYAKRPDQDCGEVNMLLDEHIRQVESRIGALLELKHHLVELREACSGARPAQSCGILQGLSDCVCDTRGTTAHPSD [R72A] | 0.06175 ± 0.00026 | 0.0687 ± 0.008 | 0.3731 ± 0.0026
7 | MNIQIGELAKRTACPVVTIRFYEQEGLLPPPGRSRGNFRLYGEEHVERLQFIRHCRSLDMPLSDVRTTLSYRKRPDQDCGEVNMLLDEHIRQVESRIGALLELKHHLVELREACSGARPAQSCGILQGLSDCVCDTRGTTAHPSD [L68T] | 0.0612 ± 0.0015 | 0.0605 ± 0.001 | 0.0717 ± 0.0013
8 | MNIQIGELAKRTACPVVTIRFYEQEGLLPPPGRSRGNFRLYGEEHVERLQFIRHCRSLDMPLSDVRTYLSYRKRPDQDCGEVNMLLDEHIRQVESRIGALLELKHHLVELREACSGARPAQSCGILQGLSDCVCDTRGTTAHPSD [L68Y] | 0.0634 | 0.0773 ± 0.0031 | 0.908 ± 0.05
9 | MNIQIGELAKRTACPVVTIRFYEQEGLLPPPGRSRGNFRLYGEEHVERLQFIRHCRSLDMPLSDVRTVLSYRKRPDQDCGEVNMLLDEHIRQVESRIGALLELKHHLVELREACSGARPAQSCGILQGLSDCVCDTRGTTAHPSD [L68V] | 0.0603 ± 0.0018 | 0.0632 ± 0.0013 | 0.384 ± 0.035
10 | MNIQIGELAKRTACPVVTIRFYEQEGLLPPPGRSRGNFRLYGEEHVERLQFIRHCRSLDMPLSDVRTWLSYRKRPDQDCGEVNMLLDEHIRQVESRIGALLELKHHLVELREACSGARPAQSCGILQGLSDCVCDTRGTTAHPSD [L68W] | 0.0627 ± 0.0026 | 0.06157 ± 0.00052 | 0.111 ± 0.0018
11 | MNIQIGELAKRTACPVVTIRFYEQEGLLPPPGRSRGNFRLYGEEHVERLQFIRHCRSLDMPLSDVRTLLSYRKRPDQACGEVNMLLDEHIRQVESRIGALLELKHHLVELREACSGARPAQSCGILQGLSDCVCDTRGTTAHPSD [D78A] | 0.0713 ± 0.0065 | 0.0689 ± 0.0021 | 0.1 ± 0.0026
12 | MNIQIGELAKRTACPVVTIRFYEQEGLLPPPGRSRGNFRLYGEEHVERLQFIRHCRSLDMPLSDVRTLLAYRKRPDQDCGEVNMLLDEHIRQVESRIGALLELKHHLVELREACSGARPAQSCGILQGLSDCVCDTRGTTAHPSD [S70A] | 0.0678 ± 0.0052 | 0.072 ± 0.0054 | 0.281 ± 0.061
13 | MNIQIGELAKRTACPVVTIRFYEQEGLLPPPGRSRGNFRLYGEEHVERLQFIRHCRSLDMPLSDVRTLLSYRKRPAQDCGEVNMLLDEHIRQVESRIGALLELKHHLVELREACSGARPAQSCGILQGLSDCVCDTRGTTAHPSD [D76A] | 0.06157 ± 0.00052 | 0.0614 ± 0.0034 | 0.202 ± 0.013
14 | MNIQIGELAKRTACPVVTIRFYEQEGLLPPPGRSRGNFRLYGEEHVERLQFIRHCRSLDMPLSDVRTLLSYRKAPDQDCGEVNMLLDEHIRQVESRIGALLELKHHLVELREACSGARPAQSCGILQGLSDCVCDTRGTTAHPSD [R74A] | 0.0596 ± 0.0013 | 0.0669 ± 0.0065 | 0.369 ± 0.079
